In the experiment the target is T1, pIgR Domain 6 GST (D6-GST) fusion protein, species not stated (Schistosoma japonica, UniProt P08515 1-218 = GST).
T1 construct: also called D6-GST constructs
Put plainly: SPR BIAcore, 1:1 Langmuir global fit 62.5-1000 nM; ligand not named. In general terms: Surface plasmon resonance follows binding to a sensor surface in real time, without labels.

T1 sequence (P08515 whole entry, the tested form may be a part): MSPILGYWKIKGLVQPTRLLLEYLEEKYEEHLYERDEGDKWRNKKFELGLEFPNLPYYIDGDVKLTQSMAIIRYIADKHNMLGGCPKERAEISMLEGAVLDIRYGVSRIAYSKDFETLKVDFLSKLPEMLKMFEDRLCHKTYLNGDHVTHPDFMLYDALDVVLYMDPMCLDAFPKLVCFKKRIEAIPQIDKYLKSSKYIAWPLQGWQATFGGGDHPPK

B1: sFv5AF-Cys (scFv)
scFv: DYKAKQVQLVQSGGGVVQPGRSLRLSCAASGFTFSSYAMHWVRQAPGKGLEWVSAISGSGGSTYYADSVKGRFTISRDNAKNSLYLQMNSLRAEDTAVYYCARDTRGYFDLWGRGTLVTVSSGGGGSGGGGSGGGGSSELTQDPAMSVALGQTVRITCQGDSLRKYHASWYQQRPRQAPRLVVYGKNERPSGIPERFSGSTSGDTASLTISGLQAEDEADYYCHSRDSNADLVVFGGGTKVTVLGGGGGSCAAAEQKLISEEDLNGAAHHHHHH
notes: also called s5AF-Cys; sFv5AF-Cys starting material
A word on the Kd: it is the constant that tells how readily two partners part at equilibrium. A lower Kd goes with higher affinity. What is called koff is a measure of how fast the partners let go of each other. Read a low koff as a long-lived complex. The term kon denotes the second-order rate constant of association. With B1, the Ka was 9.84e+06 M⁻¹; the affinity, expressed as Kd, was 102 nM; the koff was found to be 0.00464 s⁻¹; the kon was found to be 37600 M⁻¹ s⁻¹.

B2: single chain antibody sFv5A (scFv)
scFv: QVQLQQSGGGVVQPGRSLRLSCAASGFTFSSYAMHWVRQAPGKGLEWVSAISGSGGSTYYADSVKGRFTISRDNAKNSLYLQMNSLRAEDTAVYYCARDTRGYFDLWGRGTLVTVSSGGGGSGGGGSGGGGSSELTQDPAMSVALGQTVRITCQGDSLRKYHASWYQQRPRQAPRLVVYGKNERPSGIPERFSGSTSGDTASLTISGLQAEDEADYYCHSRDSNADLVVFGGGTKVTVLGAAAEQKLISEEDLNGAAHHHHHH
notes: also called sFv (positive control)
B2 registered a Ka of 6.31e+06 M⁻¹, a Kd of 158 nM, a koff of 0.00464 s⁻¹ and a kon of 29300 M⁻¹ s⁻¹.

The values above are taken from US20060099150A1 (published 2006).
